Here are results for one molecule from patent US9907791B2, “Ron inhibitors for use in preventing and treating bone loss” (UNIVERSITY OF UTAH RESEARCH FOUNDATION, priority 2014, dated 2018).

Holding throughout (type): cell-based, mice
Assay [1] concerns WT bone marrow precursor cells. In words: Osteoclast differentiation (TRAP+ osteoclasts). The note with it: 100 pg/mL MSP in presence of M-CSF and RANKL. On the procedure:
Bone marrow precursor cells were thawed and seeded at a density of 2×10^5 cells per well in a 24-well plate containing glass coverslips in α-MEM media containing 10% FBS and antibiotics. After adhering overnight, media was removed and media containing 33 ng/mL hM-CSF and 9 ng/mL muRANKL was added. Cells were allowed to differentiate for 7 days with media changed every 3 days. Coverslips were then imaged microscopically using phase contrast to determine osteoclast number in each well. To test survival, factor-containing media was removed and α-MEM media containing 10% FBS was added as well as MSP as indicated. Cells were cultured for an additional 48 hours, fixed with 10% NBF for 10 minutes and washed with 1×PBS. For TRAP fluorescent staining, the leukocyte acid phosphatase kit (Sigma, St. Louis, Mo.) was used according to the manufacturer's instructions, with the substitution of 200 μM ELF97 (Invitrogen, Waltham, Mass.) as a phosphatase substrate. […] The number of multinucleated TRAP+ cells (containing 4 or more nuclei) within 5 representative fields were included for quantification. […]
M-CSF and RANKL were present continuously beginning on day 1 until experimental analysis. […] TRAP+ cells were identified by fluorescent TRAP stain and cells with 4 or more nuclei were counted (***p<0.0001). […]

Assay [2] concerns bone marrow osteoclasts. In words: Osteoclast survival assay. Particulars: 100 pg/mL MSP daily from day 7 for 48 hours. Here is the method:
Bone marrow precursor cells were thawed and seeded at a density of 2×10^5 cells per well in a 24-well plate containing glass coverslips in α-MEM media containing 10% FBS and antibiotics. After adhering overnight, media was removed and media containing 33 ng/mL hM-CSF and 9 ng/mL muRANKL was added. Cells were allowed to differentiate for 7 days with media changed every 3 days. Coverslips were then imaged microscopically using phase contrast to determine osteoclast number in each well. To test survival, factor-containing media was removed and α-MEM media containing 10% FBS was added as well as MSP as indicated. Cells were cultured for an additional 48 hours, fixed with 10% NBF for 10 minutes and washed with 1×PBS. For TRAP fluorescent staining, the leukocyte acid phosphatase kit (Sigma, St. Louis, Mo.) was used according to the manufacturer's instructions, with the substitution of 200 μM ELF97 (Invitrogen, Waltham, Mass.) as a phosphatase substrate. Coverslips were incubated in TRAP solution for 15 minutes at 37 degrees, washed with 1×PBS and counterstained with DAPI. The number of multinucleated TRAP+ cells (containing 4 or more nuclei) within 5 representative fields were included for quantification. Experiments were performed in triplicate.

Assay [3] relates to bone marrow osteoclasts. The experiment in a line: Osteoclast resorption assay. Particulars: 100 pg/mL MSP daily day 9 to 12. On the procedure: Bone marrow osteoclasts were generated from 6 to 8 week old WT and RonTK−/− mice. Briefly, bone marrow was isolated from hindlimb bones and plated in α-MEM media containing 10% heat-inactivated fetal bovine serum (FBS, Sigma, St. Louis, Mo.), 100 units/mL penicillin-streptomycin (Hyclone), and 33 ng/mL human macrophage colony-stimulating factor (hM-CSF) (PeproTech, Rocky Hill, N.J.) for 24 hours. Non-adherent cells were collected and frozen for later use. To assess resorption activity, bone marrow precursor cells were thawed and seeded at a density of 1×10^5 cells per well in BioCoat Osteologic slides (BD Biosciences, San Jose, Calif.) in α-MEM media containing 10% FBS and antibiotics. After adhering overnight, media was removed and media containing 33 ng/mL hM-CSF and 9 ng/mL muRANKL (R & D systems, Minneapolis, Minn.) was added. The medium was changed every 3 days depending on acidification, and the assay was terminated as indicated. Recombinant human MSP was prepared and added daily as indicated. Cells were removed with 6% bleach and slides were viewed microscopically using phase-contrast with 20× magnification. Osteolytic resorption area within 5 representative fields was determined using Image J software, experiments were performed in triplicate. Recombinant MSP was prepared as follows (to be described in detail elsewhere): Concentrated, serum-free media from an MCF7 cell line engineered to overexpress MSP was cleaved with kallikrein (Invitrogen, Waltham, Mass.; 4 ng of kallikrein/1 μg of supernatant protein at 37° C. for 2.5 hours). The reaction was diluted to 20 mL with 10 mM sodium phosphate, pH 7.4 and loaded onto a 5 mL HiTrap heparin column (Millipore, Billerica, Mass.) equilibrated with 20 mL of 10 mM sodium phosphate, pH 7.4, at a rate of 1 mL/min. The column was washed with 10 mL of 10 mM sodium phosphate, pH 7.4, at a rate of 1 mL/min. […]

The test system of a further assay is c-Src. In words: Western blot of osteoclast lysates, phospho-Src. Here is the method:
Cells were serum starved (0.5% FBS) for 3 hours prior to lysate collection. Inhibitors were added 1 hour prior to lysis and MSP was added 15 min prior to lysis when indicated. Cells were washed with 1×PBS and harvested in lysis buffer (25 mM Tris-HCl, pH 7.5, 0.42 M NaCl, 1.5 mM MgCl2, 0.5 mM EDTA, 1 mM DTT, 25% sucrose, and 0.1% Triton X-100) plus 100× protease arrest (Bioscience, Bozeman, Mont.) and 100× orthovanadate. Primary antibodies used for immunoblotting include: anti-MSP (Santa Cruz, sc-6090, Dallas, Tex.) at a 1:250 dilution, anti-pan Akt (Cell Signaling, #4691S, Beverly, Mass.) at a 1:1000 dilution, anti-pan Erk (Cell Signaling, #4695, Beverly, Mass.) at a 1:1000 dilution, anti-phospho Akt (Cell Signaling, #9271 L, Beverly, Mass.) at a 1:500 dilution, anti-phospho Erk (Cell Signaling, #4370S, Beverly, Mass.) at a 1:500 dilution, anti-Src (Cell Signaling, #2110, Beverly, Mass.) at a 1:500 dilution, and anti-phospho Src (Y416) (Cell Signaling, #2113, Beverly, Mass.) at a 1:500 dilution. The secondary antibodies used were HRP-conjugated anti-goat IgG (Santa Cruz, Dallas, Tex.) and anti-rabbit IgG (Santa Cruz, Dallas, Tex.). Chemiluminescent signals were detected using Immun-Star HRP (BioRad, Hercules, Calif.).
(In western blotting, separated proteins are transferred to a membrane and probed.)

B1: MSP: recombinant human macrophage-stimulating protein, the RON ligand (protein)
chain: QRSPLNDFQVLRGTELQHLLHAVVPGPWQEDVADAEECAGRCGPLMDCRAFHYNVSSHGCQLLPWTQHSPHTRLRRSGRCDLFQKKDYVRTCIMNNGVGYRGTMATTVGGLPCQAWSHKFPNDHKYTPTLRNGLEENFCRNPDGDPGGPWCYTTDPAVRFQSCGIKSCREAACVWCNGEEYRGAVDRTESGRECQRWDLQHPHQHPFEPGKFLDQGLDDNYCRNPDGSERPWCYTTDPQIEREFCDLPRCGSEAQPRQEATTVSCFRGKGEGYRGTANTTTAGVPCQRWDAQIPHQHRFTPEKYACKDLRENFCRNPDGSEAPWCFTLRPGMRAAFCYQIRRCTDDVRPQDCYHGAGEQYRGTVSKTRKGVQCQRWSAETPHKPQFTFTSEPHAQLEENFCRNPDGDSHGPWCYTMDPRTPFDYCALRRCADDQPPSILDPPDQVQFEKCGKRVDRLDQRRSKLRVVGGHPGNSPWTVSLRNRQGQHFCGGSLVKEQWILTARQCFSSCHMPLTGYEVWLGTLFQNPQHGEPSLQRVPVAKMVCGPSGSQLVLLKLERSVTLNQRVALICLPPEWYVVPPGTKCEIAGWGETKGTGNDTVLNVALLNVISNQECNIKHRGRVRESEMCTEGLLAPVGACEGDYGGPLACFTHNCWVLEGIIIPNRVCARSRWPAVFTRVSVFVDWIHKVMRLG
modifications: left off: small tags and cut ends
notes: recombinant human macrophage-stimulating protein, the RON ligand
Turning to B1, the osteoclast differentiation result in assay [1] is reported as “did not increase osteoclast differentiation”. Besides, the “number of surviving osteoclasts without RANKL and M-CSF” value in the assay with bone marrow osteoclasts [2] was “significantly augmented”. In the assay on bone marrow osteoclasts [3], the “resorptive capacity of RonTK−/− osteoclasts” value is “no effect” and the “resorptive capacity of WT osteoclasts” value was “significant increase”. Also, in the assay on c-Src, the “phosphorylated c-Src in WT osteoclasts” value is “increased Src phosphorylation”.
